The target in the experiment is cation-independent mannose 6-phosphate (M6P) receptor (MPR) (UniProt P11717). Nature of the experiment: cell-based or functional assay.
UniProt P11717, sequence (P11717 41-2491): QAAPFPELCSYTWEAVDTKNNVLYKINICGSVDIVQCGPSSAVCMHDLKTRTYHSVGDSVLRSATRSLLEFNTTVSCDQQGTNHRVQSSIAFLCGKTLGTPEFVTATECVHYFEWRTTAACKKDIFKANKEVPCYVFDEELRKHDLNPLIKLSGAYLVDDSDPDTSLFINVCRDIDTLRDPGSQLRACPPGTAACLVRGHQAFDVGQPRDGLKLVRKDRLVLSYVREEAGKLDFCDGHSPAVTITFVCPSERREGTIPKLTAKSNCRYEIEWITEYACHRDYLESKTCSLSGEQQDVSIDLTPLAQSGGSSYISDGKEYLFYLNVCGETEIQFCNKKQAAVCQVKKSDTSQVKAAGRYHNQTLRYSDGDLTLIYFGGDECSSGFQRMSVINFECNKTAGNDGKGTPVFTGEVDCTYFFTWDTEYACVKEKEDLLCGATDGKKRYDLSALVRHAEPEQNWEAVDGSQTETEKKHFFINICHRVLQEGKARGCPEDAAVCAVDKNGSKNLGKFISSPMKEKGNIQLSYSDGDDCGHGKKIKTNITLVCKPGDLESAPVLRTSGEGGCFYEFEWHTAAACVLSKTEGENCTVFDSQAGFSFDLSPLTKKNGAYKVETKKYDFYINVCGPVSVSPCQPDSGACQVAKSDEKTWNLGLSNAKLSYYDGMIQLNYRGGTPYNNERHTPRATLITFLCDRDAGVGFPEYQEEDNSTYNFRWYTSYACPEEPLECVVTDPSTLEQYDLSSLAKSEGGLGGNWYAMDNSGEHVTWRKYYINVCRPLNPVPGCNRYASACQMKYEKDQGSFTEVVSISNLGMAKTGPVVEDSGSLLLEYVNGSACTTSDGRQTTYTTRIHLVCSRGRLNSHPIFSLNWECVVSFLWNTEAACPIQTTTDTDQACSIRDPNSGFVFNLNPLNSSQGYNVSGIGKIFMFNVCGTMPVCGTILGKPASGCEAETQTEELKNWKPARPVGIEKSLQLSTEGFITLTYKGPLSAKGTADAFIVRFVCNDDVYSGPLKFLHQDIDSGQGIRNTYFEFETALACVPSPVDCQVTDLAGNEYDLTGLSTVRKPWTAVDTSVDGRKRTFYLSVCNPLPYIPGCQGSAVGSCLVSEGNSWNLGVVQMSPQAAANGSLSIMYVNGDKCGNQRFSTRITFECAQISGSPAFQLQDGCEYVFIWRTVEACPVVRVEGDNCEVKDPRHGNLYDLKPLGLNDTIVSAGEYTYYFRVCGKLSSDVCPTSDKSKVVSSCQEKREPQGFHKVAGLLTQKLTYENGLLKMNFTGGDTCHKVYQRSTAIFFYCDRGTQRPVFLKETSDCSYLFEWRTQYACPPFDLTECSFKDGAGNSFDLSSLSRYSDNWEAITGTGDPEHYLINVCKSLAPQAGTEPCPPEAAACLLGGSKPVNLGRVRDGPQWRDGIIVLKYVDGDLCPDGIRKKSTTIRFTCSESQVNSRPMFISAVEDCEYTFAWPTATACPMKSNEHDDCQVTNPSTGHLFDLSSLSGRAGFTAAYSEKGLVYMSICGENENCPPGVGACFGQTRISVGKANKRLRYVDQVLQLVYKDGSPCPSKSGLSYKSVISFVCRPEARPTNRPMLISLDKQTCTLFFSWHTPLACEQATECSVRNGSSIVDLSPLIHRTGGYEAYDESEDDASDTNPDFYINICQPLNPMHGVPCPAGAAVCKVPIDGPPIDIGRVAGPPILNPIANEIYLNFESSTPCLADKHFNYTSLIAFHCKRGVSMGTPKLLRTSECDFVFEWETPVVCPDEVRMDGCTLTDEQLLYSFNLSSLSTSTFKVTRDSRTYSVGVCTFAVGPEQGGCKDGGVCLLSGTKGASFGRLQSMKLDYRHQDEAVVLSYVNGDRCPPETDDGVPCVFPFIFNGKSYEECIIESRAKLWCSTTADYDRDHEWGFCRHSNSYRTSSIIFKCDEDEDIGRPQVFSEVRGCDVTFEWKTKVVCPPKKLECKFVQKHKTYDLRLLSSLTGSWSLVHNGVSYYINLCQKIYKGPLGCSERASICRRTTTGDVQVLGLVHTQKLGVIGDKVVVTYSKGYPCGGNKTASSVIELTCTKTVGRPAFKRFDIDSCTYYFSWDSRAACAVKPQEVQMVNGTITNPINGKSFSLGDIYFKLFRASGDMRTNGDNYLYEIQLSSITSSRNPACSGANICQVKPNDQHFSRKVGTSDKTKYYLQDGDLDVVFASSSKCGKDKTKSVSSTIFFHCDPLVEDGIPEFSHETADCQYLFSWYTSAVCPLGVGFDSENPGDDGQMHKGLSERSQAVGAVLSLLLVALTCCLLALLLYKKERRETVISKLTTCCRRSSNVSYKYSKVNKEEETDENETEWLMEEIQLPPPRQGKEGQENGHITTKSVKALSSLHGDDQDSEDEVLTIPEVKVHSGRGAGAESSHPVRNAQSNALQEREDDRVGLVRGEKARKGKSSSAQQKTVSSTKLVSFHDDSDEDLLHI

The substance “alpha-L-iduronidase (IDUA) released by erythroid-induced MEL-KIiG cells (human IDUA cDNA) (from UniProt P35475 28-653) (enzyme)” returned an intracellular IDUA level in LCLmps cells after uptake, relative to wild-type (% of wild-type levels) of 10 and an intracellular IDUA specific activity in LCLmps cells after 3 hr uptake from conditioned medium of 0.8 U/mg.

The record behind these values is patent US20170327844A1.
